Assay [1] concerns the target FcγRIIA (human) (UniProt P12318). Description: SPR Biacore 8K; IgG captured on biotinylated CD3 peptide SA chip; 1 µM FcγRIIA, pH 7.4.
Assay [2] has as its target FcγR on THP-1 cells. Description: flow cytometry; 100 nM antibody pre-complexed with 10 nM biotinylated CD3 peptide, on THP-1 cells. (A flow cytometer gives signals particle by particle.)
Assay [3] deals with FcRn (UniProt P55899). Nature of the assay: SPR Biacore 8K; IgG captured on biotinylated CD3 peptide SA chip; 1 µM FcRn, pH 6.0. (In general: In SPR one partner is held on a chip, and binding of the other changes the refractive index at the surface.)
Sequence of UniProt P55899 (P55899 24-297 limits assumed, chain 1 of 2): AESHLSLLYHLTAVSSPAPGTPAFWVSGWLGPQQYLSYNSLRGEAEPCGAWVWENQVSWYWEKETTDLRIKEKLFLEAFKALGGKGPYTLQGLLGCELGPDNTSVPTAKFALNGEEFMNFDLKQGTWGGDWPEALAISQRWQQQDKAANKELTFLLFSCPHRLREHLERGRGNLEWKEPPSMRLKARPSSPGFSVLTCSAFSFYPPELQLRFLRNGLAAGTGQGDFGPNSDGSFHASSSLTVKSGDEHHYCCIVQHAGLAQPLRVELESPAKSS
Sequence of UniProt P55899 (P61769 21-119 limits assumed, chain 2 of 2, further chain): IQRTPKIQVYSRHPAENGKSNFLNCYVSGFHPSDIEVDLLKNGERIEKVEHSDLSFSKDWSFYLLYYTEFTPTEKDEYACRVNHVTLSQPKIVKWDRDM
Assay [4] addresses FcγRIIIA (human) (UniProt P08637). Nature of the assay: SPR Biacore 8K; IgG captured on biotinylated CD3 peptide SA chip; 1 µM FcγRIIIA, pH 7.4.
Sequence of UniProt P08637 (P08637 17-208 limits assumed): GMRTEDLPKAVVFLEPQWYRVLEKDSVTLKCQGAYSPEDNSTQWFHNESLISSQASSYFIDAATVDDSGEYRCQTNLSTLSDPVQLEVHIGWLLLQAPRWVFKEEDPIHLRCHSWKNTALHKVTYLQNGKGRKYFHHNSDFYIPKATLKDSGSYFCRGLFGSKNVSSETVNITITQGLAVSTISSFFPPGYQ
Assay [5] has as its target C1q (UniProt P02745). Description: flow cytometry; antibody on CD3 peptide-coated SA Dyna Beads incubated with C1q.
Sequence of UniProt P02745 (P02745 23-245 limits assumed, chain 1 of 3): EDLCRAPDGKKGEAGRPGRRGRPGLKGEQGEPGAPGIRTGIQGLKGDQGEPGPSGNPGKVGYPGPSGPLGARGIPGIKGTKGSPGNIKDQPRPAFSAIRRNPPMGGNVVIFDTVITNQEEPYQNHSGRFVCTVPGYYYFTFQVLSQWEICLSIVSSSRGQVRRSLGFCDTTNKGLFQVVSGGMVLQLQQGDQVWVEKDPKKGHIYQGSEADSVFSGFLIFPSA
Sequence of UniProt P02745 (P02746 28-253 limits assumed, chain 2 of 3, further chain): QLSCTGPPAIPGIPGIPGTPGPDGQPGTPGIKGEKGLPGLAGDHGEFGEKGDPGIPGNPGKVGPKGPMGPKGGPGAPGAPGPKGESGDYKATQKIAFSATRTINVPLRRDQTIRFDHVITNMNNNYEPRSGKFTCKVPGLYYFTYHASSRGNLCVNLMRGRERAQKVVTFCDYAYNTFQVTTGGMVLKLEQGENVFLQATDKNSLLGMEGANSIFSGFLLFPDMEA
Sequence of UniProt P02745 (P02747 29-245 limits assumed, chain 3 of 3, further chain): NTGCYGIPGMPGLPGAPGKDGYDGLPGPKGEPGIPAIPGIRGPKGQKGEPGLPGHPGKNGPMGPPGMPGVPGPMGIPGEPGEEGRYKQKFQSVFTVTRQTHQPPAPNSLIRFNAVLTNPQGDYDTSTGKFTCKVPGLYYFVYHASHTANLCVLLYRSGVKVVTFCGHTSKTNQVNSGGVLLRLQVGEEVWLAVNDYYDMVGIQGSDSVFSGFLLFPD
For assay [6], the target named is C1q (UniProt P02745). Nature of the assay: SPR Biacore 8K; IgG captured on biotinylated CD3 peptide SA chip; 1 µM C1q, pH 7.4.
Assay [7] addresses FcγRI (human) (UniProt P12314). Nature of the assay: SPR Biacore 8K; IgG captured on biotinylated CD3 peptide SA chip; 100 nM FcγRI, pH 7.4.
Sequence of UniProt P12314 (P12314 16-288 limits assumed): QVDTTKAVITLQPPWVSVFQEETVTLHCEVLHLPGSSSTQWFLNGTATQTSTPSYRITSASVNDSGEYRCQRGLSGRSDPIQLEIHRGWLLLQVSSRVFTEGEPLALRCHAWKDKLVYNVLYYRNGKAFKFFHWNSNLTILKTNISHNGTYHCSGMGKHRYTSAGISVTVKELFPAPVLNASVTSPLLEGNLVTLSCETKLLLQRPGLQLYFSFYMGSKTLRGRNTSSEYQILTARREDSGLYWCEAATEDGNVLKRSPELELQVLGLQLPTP
The target in assay [8] is CD3. Nature of the assay: BLI ForteBio; IgG on AHQ sensor, 100 nM antigen, 1:1 model. On the technique in general: In BLI a coated tip is dipped into the sample, and binding shifts an interference pattern.
Assay [9] deals with FcγRI (human) (UniProt P12314). Nature of the assay: SPR Biacore 8K, response vs WT.
Assay [10] has as its target FcγRIIA (human) (UniProt P12318). Nature of the assay: SPR Biacore 8K, response vs WT.

Several values for one entry are separate records, joined by “and”; a condition that tells them apart may be missing. Equal entries are not always repeated.

Usually Kd stands for the free concentration of one partner at which half of the binding sites on the other are occupied at equilibrium, for simple one-to-one binding. Low values mean tighter binding, high ones weaker binding.

Sequence of UniProt P12318 (P12318 36-218 limits assumed): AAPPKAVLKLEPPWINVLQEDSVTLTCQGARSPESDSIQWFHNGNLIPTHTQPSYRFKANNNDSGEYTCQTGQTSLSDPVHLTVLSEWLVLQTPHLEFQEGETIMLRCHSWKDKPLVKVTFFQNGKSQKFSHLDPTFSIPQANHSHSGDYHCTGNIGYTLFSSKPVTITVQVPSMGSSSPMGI

Regarding “LALA variant of the CD3 antibody (WT engineered to contain L234A and L235A) (from UniProt P01857 1-330)”, the late association response (RU) in assay [1] was 0.1 RU; in assay [3] it was 44 RU; in [4], 0.6 RU; in assay [6] it was -13.9 RU; in assay [7] it was 23.5 RU. In assay [2], this substance displayed a THP-1 Binding (MFI) of 5270 MFI. Also, the C1q Binding (MFI) in assay [5] turned out to be 1980 MFI.

Turning to “LALA-PA variant of the CD3 antibody (WT engineered to contain L234A and L235A and P329A) (from UniProt P01857 1-330)”, in assay [8], the Kd stood at 3.9 nM. In addition, the late association response (RU) was -0.1 RU in [1], 45.1 RU in [3], -0.5 RU in [4] and -3.3 RU in assay [6]. The % reduction of binding compared to WT in assay [9] is > 95% and 97.6%; in [10], > 95% and 100%. In addition, the THP-1 Binding (MFI) in assay [2] worked out at 169 MFI. Besides, the C1q Binding (MFI) in [5] was 621 MFI.

For “LALA-PG variant of the CD3 antibody (WT engineered to contain L234A and L235A and P329G) (from UniProt P01857 1-330)”, the late association response (RU) in [1] was -0.1 RU; in [3] it was 44.5 RU; in assay [4], -0.3 RU; in assay [6] it was -25.1 RU; in assay [7], 2 RU. Also, the THP-1 Binding (MFI) in assay [2] worked out at 146 MFI. The same substance had a C1q Binding (MFI) in [5] of 676 MFI.

With “LALE variant of the CD3 antibody (WT engineered to contain L234A and L235E) (from UniProt P01857 1-330)”, the late association response (RU) in assay [1] was 0.1 RU; in assay [3] it was 38.9 RU; in assay [4], 0.4 RU; in assay [6], -27.3 RU. For the same substance, the THP-1 Binding (MFI) in [2] stood at 5300 MFI. Moreover, the C1q Binding (MFI) in assay [5] came out at 1790 MFI.

Turning to “LALE-PA variant of the CD3 antibody (WT engineered to contain L234A and L235E and P329A) (from UniProt P01857 1-330)”, the late association response (RU) was -0.1 RU in assay [1]; 38.1 RU in [3]; -0.1 RU in assay [4]; -23.3 RU in assay [6]; 0.8 RU in [7]. Further, the THP-1 Binding (MFI) in [2] was found to be 124 MFI. This substance also gave a C1q Binding (MFI) in assay [5] of 660 MFI.

“LALE-PG variant of the CD3 antibody (WT engineered to contain L234A and L235E and P329G) (from UniProt P01857 1-330)”: the late association response (RU) in assay [1] is 0 RU; in [3], 37.3 RU; in assay [4], -0.3 RU; in [6], -6.5 RU; in assay [7], 0.8 RU. The % reduction of binding compared to WT was determined as 99.1% in assay [9] and 100% in assay [10]. Further, the THP-1 Binding (MFI) in [2] came out at 124 MFI. For the same substance, the C1q Binding (MFI) in assay [5] was 865 MFI.

The record behind these values is patent US20210087271A1.
